± gives the uncertainty stated by the source.
Experiment: protein stability index of a GFP-peptide fusion (yeast GPS) (PSI 1-4); higher = more stable; sorted into four equal gates, so the index is relative within each strain
Settings: pdr5∆
Outline: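 Mid-log yeast cultures in leucine-free medium, carrying a pooled plasmid library, were sorted into four equal gates by their GFP/Cherry fluorescence ratio. Each plasmid expressed Cherry along with GFP fused upstream of a tiled 17-residue yeast protein peptide. Plasmids recovered from each gate were PCR-amplified and Illumina-sequenced, with reads assigned to strains by barcodes. The protein stability index was obtained by summing each gate's read frequency weighted by its gate number.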

Question: For KLHVNWNLNATKPNVLN [SIN4], which protein stability index is on record?
Answer: The protein stability index was 2.86 ± 0.11.

Same assay, conditions: san1∆

Question: With IVKVFHGAFMDIIWLQR [RRP6] as the sequence, how does the protein stability index read?
Answer: The protein stability index was 1.32 ± 0.073.

Question: With IVNVNFMKSVIRSREAF [DIS3] as the sequence, how does the protein stability index read?
Answer: The protein stability index was 2.2 ± 0.098.

Question: For IVQIDATPFRQWFEAHY [RPS8A], which protein stability index is on record?
Answer: Its protein stability index is 2.626 ± 0.023.

Question: Which protein stability index does the source give for IVTGNLVLDLLTWLSSF [IRR1] here?
Answer: The protein stability index was 2.05 ± 0.07.

Question: Which protein stability index does the source give for IVTKDGVRKEFYELKRD [PRE7] here?
Answer: Its protein stability index is 3.04 ± 0.082.

Question: Which protein stability index does the source give for IVVQLNGRLNKCGVISP [RPS22A] here?
Answer: Its protein stability index is 2.98 ± 0.093.

Question: For IYISNLVRSIIAFDDLI [RPN8], which protein stability index is on record?
Answer: The protein stability index was 1.17 ± 0.23.

Question: Which protein stability index does the source give for IYLSRFLIKASVREINL [SSN8] here?
Answer: The protein stability index was 2.04 ± 0.13.

Question: With IYNNIVSNIEGILDEIM [RGR1] as the sequence, how does the protein stability index read?
Answer: The protein stability index was 2.15 ± 0.098.

Question: Which protein stability index does the source give for IYNSASKASMQKEQNVN [YCS4] here?
Answer: The protein stability index was 1.58 ± 0.22.

Question: For IYRTTRQDGSYTYHSTN [ARP9], which protein stability index is on record?
Answer: Its protein stability index is 2.27 ± 0.093.

Question: For IYSRDIGAELKREESES [SNF2], which protein stability index is on record?
Answer: Its protein stability index is 3.08 ± 0.066.

Question: With KAAAGAGSAALKIIHDT [RPO31] as the sequence, how does the protein stability index read?
Answer: The protein stability index was 1.72 ± 0.13.

Question: Which protein stability index does the source give for KAIPTFSFGKPFFSSNT [YIL149C/MLP2] here?
Answer: The protein stability index was 2.94 ± 0.035.

Question: With KAKSNQTQREKAPLQPN [IRR1] as the sequence, how does the protein stability index read?
Answer: Its protein stability index is 3.09 ± 0.035.

Question: With KAKSVVNDVEELGEIID [RMP1] as the sequence, how does the protein stability index read?
Answer: Its protein stability index is 2.8 ± 0.26.

Question: Which protein stability index does the source give for KALLFFNNEKETEKFAL [RPN12] here?
Answer: Its protein stability index is 3.31 ± 0.059.

Question: With KALPIRRDDEVLVVRGS [RPL26A] as the sequence, how does the protein stability index read?
Answer: The protein stability index was 3.23 ± 0.13.

Question: Which protein stability index does the source give for KALVLFVPVPALSAYHK [RPS7B] here?
Answer: The protein stability index was 2.12 ± 0.12.

Question: For KAPEQFIENFLTNDTFE [YML103C/NUP188], which protein stability index is on record?
Answer: Its protein stability index is 2.93 ± 0.12.

Question: For KCQTCQEGMNECPGHFG [RPO21], which protein stability index is on record?
Answer: The protein stability index was 3.51 ± 0.086.

Question: Which protein stability index does the source give for KDAEDETSSDGSKSDGS [RPN1] here?
Answer: Its protein stability index is 3.64 ± 0.047.

Question: For KDAEYLRNYLTPNVREE [PUP1], which protein stability index is on record?
Answer: The protein stability index was 3.14 ± 0.056.

Question: Which protein stability index does the source give for KDALSNSILSVRDPWSI [SRB2] here?
Answer: The protein stability index was 3.1 ± 0.06.

Question: For KDEEETEYFENKQSVSN [DSN1], which protein stability index is on record?
Answer: Its protein stability index is 3.31 ± 0.085.

Question: For KDGSNPRTLIGHRATVT [RPN14], which protein stability index is on record?
Answer: Its protein stability index is 3.07 ± 0.14.

Question: With KDILNLASEVGDPALVY [ECM29] as the sequence, how does the protein stability index read?
Answer: Its protein stability index is 3.39 ± 0.066.

Question: Which protein stability index does the source give for KDKFNQIPLHRAASVGS [NAS6] here?
Answer: The protein stability index was 2.05 ± 0.15.

Question: Which protein stability index does the source give for KDLKDDSIYTKPVKVAL [YJL039C/NUP192] here?
Answer: The protein stability index was 2.73 ± 0.053.

Question: With KDLKHIIYYKFNKNLGK [PRP8] as the sequence, how does the protein stability index read?
Answer: Its protein stability index is 1.32 ± 0.11.

Question: With KDMKLLRYYKNIWLNNK [NUT1] as the sequence, how does the protein stability index read?
Answer: Its protein stability index is 1.97 ± 0.15.

Question: With KDMLYSGITGECLQAYI [RET1] as the sequence, how does the protein stability index read?
Answer: Its protein stability index is 2.5 ± 0.052.

Question: For KDQALIGTINSIVHINS [SIR2], which protein stability index is on record?
Answer: The protein stability index was 1.75 ± 0.049.

Question: With KDSYVRIANIEQNHLDN [YDL088C/ASM4] as the sequence, how does the protein stability index read?
Answer: The protein stability index was 3.05 ± 0.13.

Question: With KDTNDHVDKRTKIDQEA [ISW2] as the sequence, how does the protein stability index read?
Answer: Its protein stability index is 2.77 ± 0.051.

Question: For KDVAKPTGPKTAIDKNG [FAS2], which protein stability index is on record?
Answer: Its protein stability index is 3.06 ± 0.074.

Question: Which protein stability index does the source give for KDVKARIAAGDGDDDDE [QCR9] here?
Answer: The protein stability index was 2.12 ± 0.074.

Question: Which protein stability index does the source give for KDVKAWAGKRLWDQDIA [COR1] here?
Answer: Its protein stability index is 3.27 ± 0.061.

Question: Which protein stability index does the source give for KDVLAQTSVTTNFNEIT [SWP82] here?
Answer: Its protein stability index is 2.7 ± 0.071.

Question: With KEIYTTLGNQMLSAHNI [YJR042W/NUP85] as the sequence, how does the protein stability index read?
Answer: Its protein stability index is 3.12 ± 0.079.

Question: With KEKLIGWYHSGPKLRAS [RPN8] as the sequence, how does the protein stability index read?
Answer: Its protein stability index is 2.53 ± 0.051.

Question: For KEKWPSLELQSFQKIPL [YML103C/NUP188], which protein stability index is on record?
Answer: Its protein stability index is 2.03 ± 0.11.

Question: For KELKEKEAAESPEEADV [PUP2], which protein stability index is on record?
Answer: Its protein stability index is 3.02 ± 0.057.

Question: With KENFILDSLMKTTRLLL [YJL039C/NUP192] as the sequence, how does the protein stability index read?
Answer: Its protein stability index is 1.42 ± 0.095.

Question: With KEPRLVIVTDPRSDAQA [RPS0A] as the sequence, how does the protein stability index read?
Answer: Its protein stability index is 2.94 ± 0.064.

Question: For KFADGFLIHSGQPVNDF [RPS3], which protein stability index is on record?
Answer: The protein stability index was 3.22 ± 0.074.

Question: For KFFMKHGLILELQKIWQ [SRB5], which protein stability index is on record?
Answer: Its protein stability index is 3.32 ± 0.069.

Question: With KFGACVAQGIMNAGGRN [RPN2] as the sequence, how does the protein stability index read?
Answer: The protein stability index was 2.52 ± 0.23.

Question: With KFIALCEQQPSQEREFS [SIN4] as the sequence, how does the protein stability index read?
Answer: Its protein stability index is 2.67 ± 0.088.

Question: With KFKHIDDKYGRKFALEK [SRP72] as the sequence, how does the protein stability index read?
Answer: Its protein stability index is 3.17 ± 0.054.
